Paper PMC4202109

Biological target: Fluorescently labeled ATS (intracellular segment) of PfEMP1 variant PF08_0141, full-length segment (P. falciparum)
Assay: fluorescence polarisation

Q: “PFE1605w PHIST domain (residues 122–335) (domain or fragment)” was tested. Which Kd did it give?
A: 5 µM
